US20240034801A1 (BEIJING HANMI PHARMACEUTICAL, published 2024)

Assays:
[1] = biological target: T1, recombinant human PD-L1 (Sino Biological Inc., catalog number 100 84-H08H) (human, UniProt Q9NZQ7 19-239); assay: ELISA, recombinant human PD-L1 coated (FIG. 8A)
T1 construct: Bought protein coated on the ELISA plate
Description: (§1) The detailed process is as follows: a 96-well high-adsorption ELISA plate (Costar, catalog number 42592) was coated with 1 μg/mL recombinant human PD-L1 (Sino Biological Inc., catalog number 100 84-H08H) or human 4-1BB (Sino Biological Inc., catalog number 10041-H08H) at 100 μL per well using carbonate buffer solution, pH=9.6 at 4° C. overnight. The plate was wash 5 times with PBST, and then blocked using PBST with 1% BSA 300 μL/well and incubated at 25° C. for 1 hour, and then washed 5 times with PBST. The heterodimeric antibody samples serially diluted in PBST with 1% BSA and the control were added, 100 μL per well and incubated at 25° C. for 1 hour. The plate was washed 5 times with PBST. The horseradish peroxidase-labeled anti-human IgG antibody (Chemicon, catalog number AP309P) diluted 1:10000 in PBST with 1% BSA was then added, 100 μL per well, and incubated at 25° C. for 1 hour. The plate was […] with PBST. The colorimetric substrate TMB was added, 100 μL/well, and developed at room temperature for 10 minutes. 1 M H₂SO₄, was added, 100 μL/well, to stop the development. The absorbance at 450 nm was read on a microplate reader.

[2] = biological target: T2, recombinant human 4-1BB (Sino Biological Inc., catalog number 10041-H08H) (human, UniProt Q07011 24-186); assay: ELISA, human 4-1BB coated (FIG. 8B; assay format inferred from the order of the methods)
T2 construct: Bought protein coated on the ELISA plate
Description: as §1

T1 sequence (Q9NZQ7 19-239 limits assumed): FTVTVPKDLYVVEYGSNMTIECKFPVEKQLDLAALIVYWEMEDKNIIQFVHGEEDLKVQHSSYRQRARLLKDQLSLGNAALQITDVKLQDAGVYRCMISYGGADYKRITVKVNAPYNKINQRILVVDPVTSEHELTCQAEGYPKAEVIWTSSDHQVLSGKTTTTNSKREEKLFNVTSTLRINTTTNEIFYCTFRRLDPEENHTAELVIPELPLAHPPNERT

B1: anti-PD-L1/anti-4-1BB heterodimeric antibody BH3120h (bispecific antibody, human IgG1, kappa, N297A)
heavy 1: not shown
light 1: DIQMTQSPSSLSASVGDRVTITCKASQDVHTAVAWIQQKPGKSPKLLIYSASNRYTGVPSRFSGSGSGTDFTFTISSLQPEDIATYYCQQHYITPLTFGQGTKLEIKRTVAAPSVFIFPPSDEQLKSGTASVVCLLNNFYPREAKVQWKVDNALQSGNSQESVTEQDSKDSTYSLSSTLTLSKADYEKHKVYACEVTHQGLSSPVTKSFNRGEC
heavy 2: QVQLVQSGAEVKKPGSSVKVSCKASGYTFTSYWINWVRQAPGQGLEWMGNIYPSDSYTNYNQKFKDRVTITADKSTSTAYMELSSLRSEDTAVYYCARLYYGSSPFDYWGQGTTVTVSSASTKGPSVFPLAPSSKSTSGGTAALGCLVKDYFPEPVTVSWNSGALTSGVHTFPAVLQSSGLYSLSSVVTVPSSSLGTQTYICNVNHKPSNTKVDKKVEPKSCDKTHTCPPCPAPELLGGPSVFLFPPKPKDTLMISRTPEVTCVVVDVSHEDPEVKFNWYVDGVEVHNAKTKPREEQYASTYRVVSVLTVLHQDWLNGKEYKCKVSNKALPAPIEKTISKAKGQPREPQVYTEPPSRDELTKNQVSLTCLVKGFYPSDIAVEWESNGQPENNYKTTPPVLDSDGSFFLLSVLTVDKSRWQQGNVFSCSVMHEALHNHYTQKSLSLSPGK
light 2: not shown
notes: also called anti-PD-L1/anti-4-1BB bispecific antibody; anti-PD-L1/anti-4-1BB heterodimeric antibody molecule
binding result [1]: binds | binding result [2]: binds
